The text below walks through data of the supplement of paper PMC10126150.

± gives the standard deviation of the averaged measurements.
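Further: ATP exposure 15 min at 22 °C before imaging.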

This data set relates to ATP. Nature of the data set: switch fluorescence ratio, 500 uM ATP over buffer (Cy3 cluster intensity, sum of 5 cycles each) (fold (ratio)); higher = stronger signal-on switching upon ATP binding; sequences stand for … in TCGTCGGCAGCGTCAGATGTGTATAAGAGACAGTTTTTTTTTTTTTTTTTTTTTTTTT…TC. The following applies: aptamer strand: ATP DNA aptamer (quencher-CACCTGGGGGAGTATTGCGGAGGAAGG + anchor), 100 nM annealed; ATP concentration: 500 uM. The method in brief:
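Five buffer/ATP imaging cycles were run on Cy3-labelled switching-strand clusters on a modified Illumina MiSeq flow-cell, with NaOH stripping and re-annealing between cycles. In each cycle, clusters annealed to 100 nM quencher-labelled ATP aptamer were imaged in selection buffer, then after 15 min with 500 uM ATP at 22 °C. Per cluster, the fluorescence ratio is summed target-cycle over summed buffer-cycle Cy3 intensity, averaged per switch-domain sequence. Only clusters within 100-1000 RFU were kept.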
Take TCGCGGGAAA: the switch fluorescence ratio is 1.01 ± 0.025.

With GGGACTCGTG, the switch fluorescence ratio stood at 1.04 ± 0.053.

Consider CCACTTGAAA, for which the switch fluorescence ratio came out at 1 ± 0.018.

CGTGTCGCGC: the switch fluorescence ratio was found to be 1.002 ± 0.01.

On to GTTGGCGTGA, for which the switch fluorescence ratio stood at 1.01 ± 0.057.

GGCACGATGG: the switch fluorescence ratio came to 1 ± 0.035.

For AACAAAGAGA, the switch fluorescence ratio amounted to 1.02 ± 0.026.

Take GTACTGCCTG: the switch fluorescence ratio was found to be 1 ± 0.024.

Take GCTGCGGGGA: the switch fluorescence ratio was 0.9929 ± 0.0071.

As to TAAAGTGAGC, the switch fluorescence ratio came out at 1.028 ± 0.0051.

As for ATACCGAGTA, the switch fluorescence ratio was 1.01 ± 0.049.

For the sequence GCATAGGGAA, the switch fluorescence ratio stood at 1 ± 0.015.

As to AGGGAAAGTG, the switch fluorescence ratio is 0.971 ± 0.02.

ACCAGCGAAT: the switch fluorescence ratio amounted to 1.06 ± 0.043.

Regarding GGGGGAGGAA, the switch fluorescence ratio came to 0.978 ± 0.026.

As to TTTGTATTCA, the switch fluorescence ratio was found to be 1.01 ± 0.06.

Turning to GGTTTATGAC, the switch fluorescence ratio worked out at 1.13 ± 0.27.

Turning to GAGGTGATAG, the switch fluorescence ratio was 1.036 ± 0.0033.

Consider CATCTATGGT, for which the switch fluorescence ratio worked out at 0.992 ± 0.01.

Consider ATGGTAATGG, for which the switch fluorescence ratio was found to be 1.02 ± 0.016.

For the sequence GATGAGTTGT, the switch fluorescence ratio was determined as 0.961 ± 0.021.

As for TGTTAAAGCG, the switch fluorescence ratio is 1.06 ± 0.049.

Regarding AAAGCGGATG, the switch fluorescence ratio is 0.986 ± 0.077.

GTTTATACCG: the switch fluorescence ratio turned out to be 0.996 ± 0.015.

AGTTAAGGCC: the switch fluorescence ratio came out at 1.09 ± 0.092.

Regarding GGAATAGCGG, the switch fluorescence ratio came out at 0.993 ± 0.029.

In the case of GGACGGAATG, the switch fluorescence ratio was 0.955 ± 0.02.

As to ATAAGGCAGG, the switch fluorescence ratio worked out at 0.999 ± 0.024.

As for TTCGCAGTCA, the switch fluorescence ratio was determined as 1.03 ± 0.052.

In the case of GTTCTGTCGG, the switch fluorescence ratio is 1.002 ± 0.01.

Turning to AAACAGGAGT, the switch fluorescence ratio came out at 1.008 ± 0.0037.

As to GTGGATTATT, the switch fluorescence ratio amounted to 0.993 ± 0.05.

In the case of GGGGGGCCGA, the switch fluorescence ratio was 1.01 ± 0.03.

Consider ATAAAAAGGT, for which the switch fluorescence ratio amounted to 0.987 ± 0.013.

Take GAGTGGACTC: the switch fluorescence ratio was 0.999 ± 0.029.

Turning to GAGCTAGGGA, the switch fluorescence ratio came to 1.011 ± 0.0013.

With GGGTGTGGAC, the switch fluorescence ratio turned out to be 1.04 ± 0.023.

As to GGGGTCCAAG, the switch fluorescence ratio turned out to be 1 ± 0.017.

ATTGGAGTAG: the switch fluorescence ratio worked out at 1.01 ± 0.014.

For the sequence CTAAGTTTGG, the switch fluorescence ratio came to 1.018 ± 0.0037.

With ACGAATGCGT, the switch fluorescence ratio amounted to 0.975 ± 0.047.

In the case of AAAGGATACG, the switch fluorescence ratio amounted to 1.01 ± 0.034.

For CCTTATGGGG, the switch fluorescence ratio came to 1 ± 0.023.

CGGTTGGTGA: the switch fluorescence ratio was 0.974 ± 0.035.

As for GGGTTTATCT, the switch fluorescence ratio amounted to 0.986 ± 0.039.

On to AGGTGGCTAG, for which the switch fluorescence ratio is 1.026 ± 0.0052.

With CTGGTGGTGG, the switch fluorescence ratio is 0.986 ± 0.075.

With TAGCGCGGGA, the switch fluorescence ratio was 1 ± 0.016.

For the sequence TTGTGGCAAG, the switch fluorescence ratio came out at 1 ± 0.018.

For TAGTGTGTTG, the switch fluorescence ratio is 0.996 ± 0.011.

Take TATGGATCTA: the switch fluorescence ratio came out at 0.986 ± 0.048.

With CTGCGTCGGA, the switch fluorescence ratio turned out to be 1.01 ± 0.032.

In the case of TGTTGGGATG, the switch fluorescence ratio is 1.01 ± 0.02.

With GTTTAAGGAC, the switch fluorescence ratio came to 0.991 ± 0.038.

Turning to GACAGGTGCG, the switch fluorescence ratio amounted to 1.274 ± 0.012.

On to GAAGCGTGTC, for which the switch fluorescence ratio is 1.02 ± 0.017.

Consider TTCGAGCCGA, for which the switch fluorescence ratio worked out at 1.029 ± 0.0064.

For the sequence TCGGCGACAT, the switch fluorescence ratio worked out at 1.005 ± 0.0072.

Turning to TGGATAAGAG, the switch fluorescence ratio was 0.975 ± 0.019.

With GGTAAAGCAT, the switch fluorescence ratio was determined as 1.027 ± 0.006.

Take GGTGCAAGTT: the switch fluorescence ratio is 1.02 ± 0.042.

In the case of TAGGGCATCG, the switch fluorescence ratio was 1.01 ± 0.03.

Consider CTTAGCATTG, for which the switch fluorescence ratio came to 1.03 ± 0.023.

For GGGAAAGGTT, the switch fluorescence ratio was 1.01 ± 0.026.

AGCAGGGCGG: the switch fluorescence ratio stood at 0.983 ± 0.011.

With ACGAAGAGTT, the switch fluorescence ratio was determined as 1.05 ± 0.019.

As for TTTACGGCTA, the switch fluorescence ratio stood at 1.06 ± 0.014.

Consider ATTGTTGTAG, for which the switch fluorescence ratio amounted to 0.985 ± 0.00069.

Turning to GATATATGAG, the switch fluorescence ratio came out at 0.997 ± 0.064.

ACCGGCGAGG: the switch fluorescence ratio amounted to 1.01 ± 0.036.

For the sequence GTTTTTAATG, the switch fluorescence ratio turned out to be 0.969 ± 0.011.

On to CAGGGAGGGG, for which the switch fluorescence ratio was determined as 0.995 ± 0.032.

On to CCATGGTACG, for which the switch fluorescence ratio is 1.051 ± 0.01.

Regarding TTTTTGTGAG, the switch fluorescence ratio amounted to 1.01 ± 0.039.

For CTGGCGTTCG, the switch fluorescence ratio turned out to be 0.983 ± 0.033.

For CATTGGTTTG, the switch fluorescence ratio is 1.01 ± 0.048.

As for AAGGTGTGTT, the switch fluorescence ratio came out at 1.08 ± 0.068.

For AGTTTTGTTG, the switch fluorescence ratio is 0.989 ± 0.036.
